These results are taken from PMC4105405, “VapC from the Leptospiral VapBC Toxin-Antitoxin Module Displays Ribonuclease Activity on the Initiator tRNA” (PLoS ONE, 2014).

The data set deals with the molecule itself. Nature of the data set: non-reducing SDS-PAGE.

B1: VapC toxin from Leptospira interrogans serovar Copenhageni (LIC12660), 6xHis-tagged, refolded by hig (enzyme)
chain: MYLLDTNICIFLIKKKNATLLENLKKKLNKDLFVSSLTVAELEFGIQKSEFKEKNKVALIEFLTIFNILSFSDKDAESYGIIRADLERKGNVIGSIDMLLAAQAIANNYIFVTNNTKEFKRIKALKIENWTQ
notes: also called pressurized VapC
For the protein B1, the “stoichiometry N” value was found to be 2.

B2: VapC toxin from Leptospira interrogans serovar Copenhageni (LIC12660), non-tagged, co-expressed with VapB (enzyme)
chain: B1 chain
notes: Translated from the bicistronic mRNA under a single promoter; also called non-tagged VapC
On to B2, for which the “stoichiometry N” value was 2.

The term stoichiometry N denotes a count of units in the complex or per binding partner.
